Measured values reported in patent US20070129307A1, “Insulin epitopes for the treatment of type 1 diabetes” (The University of British Columbia, priority 2001, published 2007).

Key:
[1] = biological target: human MHC class I molecule HLA-A*0201 (human); assay: HLA-A2 stabilization on T2 cells loaded with 50 ug/ml peptide, anti-HLA-A2 (BB7.2) flow cytometry, MFI relative to CMV/A2
[2] = biological target: T1, murine MHC class I molecule, H-2Kd (mouse); assay: MHC class I stabilization assay on TAP-deficient RMAS-Kd cells, anti-H-2Kd-FITC, flow cytometry (background without peptide 6.07%)
T1 chain 1: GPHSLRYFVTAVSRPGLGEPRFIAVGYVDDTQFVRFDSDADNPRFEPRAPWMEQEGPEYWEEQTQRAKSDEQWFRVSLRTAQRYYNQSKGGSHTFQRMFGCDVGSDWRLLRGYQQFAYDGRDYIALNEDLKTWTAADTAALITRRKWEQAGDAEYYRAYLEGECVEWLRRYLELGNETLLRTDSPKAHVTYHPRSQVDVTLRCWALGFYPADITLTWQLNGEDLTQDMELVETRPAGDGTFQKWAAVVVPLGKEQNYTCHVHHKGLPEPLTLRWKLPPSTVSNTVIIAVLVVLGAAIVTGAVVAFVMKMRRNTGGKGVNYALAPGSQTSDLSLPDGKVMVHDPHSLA
T1 chain 2: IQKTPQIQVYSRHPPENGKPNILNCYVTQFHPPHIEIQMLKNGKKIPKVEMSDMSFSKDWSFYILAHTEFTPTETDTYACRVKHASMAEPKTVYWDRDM

B1: HCV peptide (peptide)
peptide: DLMGYIPLV
modifications: not checked
relative HLA-A2 surface expression (% of CMV/A2 peptide binding) [1]: > 80%

B2: NRP-V7 (peptide)
peptide: KYNKANVFL
modifications: not checked
% of RMAS-Kd cells staining positive for surface H-2Kd [2]: 72.7%

B3: INSL (peptide)
peptide: LYLVCGERG
modifications: not checked
% of RMAS-Kd cells staining positive for surface H-2Kd [2]: 73.7%
